Reference: doi:10.1101/062877
Like-named read-outs stand apart in the source and are kept apart here.

What was measured:
Test in all cases: single-molecule TIRF microscopy of live cells
[1] = target: DNA-CAR (DNA-based chimeric antigen receptor; HA-tagged non-fluorescent version, pHR-DNA-CAR-IRES-puro) (UniProt P42081)
[2] = target: DNA-CAR (DNA-based chimeric antigen receptor; HA-tagged non-fluorescent version, pHR-DNA-CAR-IRES-puro) (UniProt P42081); remark: listed apart in the source
[3] = target: DNA-CAR (DNA-based chimeric antigen receptor; HA-tagged non-fluorescent version, pHR-DNA-CAR-IRES-puro) (UniProt P42081); remark: listed apart in the source

Sequence of ZAP70-GFP (P43403 whole entry): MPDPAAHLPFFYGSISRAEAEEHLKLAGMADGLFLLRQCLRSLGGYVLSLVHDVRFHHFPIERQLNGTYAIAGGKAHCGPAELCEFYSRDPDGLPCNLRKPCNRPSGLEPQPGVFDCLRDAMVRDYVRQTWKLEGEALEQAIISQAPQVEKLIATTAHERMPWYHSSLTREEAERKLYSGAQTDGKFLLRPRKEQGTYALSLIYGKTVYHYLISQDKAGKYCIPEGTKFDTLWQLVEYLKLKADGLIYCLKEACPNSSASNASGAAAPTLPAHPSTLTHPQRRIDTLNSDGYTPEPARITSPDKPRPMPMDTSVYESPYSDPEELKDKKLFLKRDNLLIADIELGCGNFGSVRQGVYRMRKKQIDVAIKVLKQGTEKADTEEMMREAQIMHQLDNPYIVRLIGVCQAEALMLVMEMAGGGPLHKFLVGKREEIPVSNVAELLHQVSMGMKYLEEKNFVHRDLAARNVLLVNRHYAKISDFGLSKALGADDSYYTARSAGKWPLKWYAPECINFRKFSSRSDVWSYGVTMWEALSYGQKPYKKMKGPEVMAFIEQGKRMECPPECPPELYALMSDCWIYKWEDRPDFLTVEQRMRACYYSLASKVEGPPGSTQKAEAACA

ZAP70-GFP (from UniProt P43403 1-619) (enzyme)
percent of single bound ligand-receptors that recruit ZAP70-GFP [1]: 2.2%
percent of receptor-ligand clusters of 3 or more ligands that recruit ZAP70-GFP [2]: 53%
percent of single bound ligands that recruit ZAP70-GFP [2]: 2%
duration of ZAP70-GFP recruitment at a single ligated receptor [3]: < 20 s
half-life of the bound time on a single ligated receptor [3]: 10 s
percent of receptor-ligand clusters of 3 or more ligands that recruit ZAP70-GFP [3]: 83%
percent of single bound ligand-receptors that recruit ZAP70-GFP [3]: 6.3%
percent of single bound receptors that recruit ZAP70-GFP [3]: 20%
